{
  "source": "patent US20220089663A1",
  "about": "“PROTEINS AND FLUOROPHORE-CONTAINING COMPOUNDS SELECTIVE FOR NaV1.7” (MEMORIAL SLOAN KETTERING CANCER CENTER, priority 2019, published 2022)",
  "test_in_all_cases": "cell-based or functional assay",
  "key": {"hNav1.7 (human), Q15858 [1]": {"molecular_target": "hNav1.7 (human), Q15858"}, "hNav1.6 (human), Q9UQD0 [2]": {"molecular_target": "hNav1.6 (human), Q9UQD0"}, "hNav1.7 (human), Q15858 [3]": {"molecular_target": "hNav1.7 (human), Q15858", "remark": "listed apart in the source"}, "hNav1.4 (human), P35499": {"molecular_target": "hNav1.4 (human), P35499"}, "hNav1.5 (human), Q14524": {"molecular_target": "hNav1.5 (human), Q14524"}, "Nav1.8": {"molecular_target": "Nav1.8"}, "Cav1.1": {"molecular_target": "Cav1.1"}, "Kv2.1": {"molecular_target": "Kv2.1"}, "Cav2.2": {"molecular_target": "Cav2.2"}, "hERG, Q12809": {"molecular_target": "T1, hERG, Q12809", "T1 chain": "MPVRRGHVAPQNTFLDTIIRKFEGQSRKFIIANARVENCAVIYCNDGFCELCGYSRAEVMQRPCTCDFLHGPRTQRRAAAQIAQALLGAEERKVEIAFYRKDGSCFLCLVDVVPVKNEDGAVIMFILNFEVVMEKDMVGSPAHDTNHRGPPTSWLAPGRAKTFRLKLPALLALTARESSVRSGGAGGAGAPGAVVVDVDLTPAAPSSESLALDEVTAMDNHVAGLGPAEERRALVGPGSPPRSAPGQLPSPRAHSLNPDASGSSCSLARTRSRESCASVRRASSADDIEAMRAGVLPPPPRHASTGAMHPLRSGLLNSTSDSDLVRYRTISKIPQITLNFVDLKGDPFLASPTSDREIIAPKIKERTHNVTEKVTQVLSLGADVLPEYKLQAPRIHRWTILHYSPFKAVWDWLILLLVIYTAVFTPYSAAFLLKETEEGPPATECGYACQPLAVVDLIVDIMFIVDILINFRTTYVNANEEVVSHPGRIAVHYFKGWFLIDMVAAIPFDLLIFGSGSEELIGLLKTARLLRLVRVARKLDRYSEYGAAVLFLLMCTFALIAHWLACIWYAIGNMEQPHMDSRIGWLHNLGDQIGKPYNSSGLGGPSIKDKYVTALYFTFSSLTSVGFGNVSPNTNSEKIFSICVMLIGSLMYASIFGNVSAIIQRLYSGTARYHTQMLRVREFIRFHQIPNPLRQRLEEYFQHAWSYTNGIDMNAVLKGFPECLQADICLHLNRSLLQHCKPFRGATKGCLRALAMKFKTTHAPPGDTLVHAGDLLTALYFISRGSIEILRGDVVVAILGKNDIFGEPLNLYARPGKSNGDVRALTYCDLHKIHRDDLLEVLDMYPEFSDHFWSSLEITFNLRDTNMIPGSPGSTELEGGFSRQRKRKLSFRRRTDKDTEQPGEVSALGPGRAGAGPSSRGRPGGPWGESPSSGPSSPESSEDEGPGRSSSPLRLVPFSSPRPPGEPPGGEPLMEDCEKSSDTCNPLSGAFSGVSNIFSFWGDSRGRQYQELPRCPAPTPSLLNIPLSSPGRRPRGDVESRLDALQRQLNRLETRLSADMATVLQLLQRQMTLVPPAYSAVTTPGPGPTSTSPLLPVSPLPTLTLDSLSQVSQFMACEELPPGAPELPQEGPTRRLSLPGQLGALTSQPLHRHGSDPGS"}, "hNav1.2 (human), Q99250": {"molecular_target": "hNav1.2 (human), Q99250"}, "Cav1.3": {"molecular_target": "Cav1.3"}, "hNav1.1 (human), P35498": {"molecular_target": "hNav1.1 (human), P35498"}, "hNav1.6 (human), Q9UQD0 [4]": {"molecular_target": "hNav1.6 (human), Q9UQD0", "remark": "listed apart in the source"}, "Nav1.9": {"molecular_target": "Nav1.9"}, "hNav1.3 (human), Q9NY46": {"molecular_target": "hNav1.3 (human), Q9NY46"}},
  "note": "Like-named read-outs stand apart in the source and are kept apart here.",
  "data": [
    {"binder": "YCQKFLWTCDSERPCCEGLVCRLWCKIN (modifications not checked)", "note": "[Hsp1a-FL]", "values": [
      {"measurement": "IC50, automated whole-cell patch clamp", "setting": "hNav1.7 (human), Q15858 [1]", "result": 62, "unit": "nM"}
    ]},
    {"binder": "GNDCLGFWSACNPKNDKCCANLVCSSKHKWCKGKL (modifications not checked)", "note": "[Hs1a]", "values": [
      {"measurement": "IC50, automated patch clamp", "setting": "hNav1.6 (human), Q9UQD0 [2]", "result": 19.2, "unit": "nM"},
      {"measurement": "IC50, automated patch clamp", "setting": "hNav1.7 (human), Q15858 [3]", "result": 26.9, "unit": "nM"},
      {"measurement": "IC50, automated patch clamp", "setting": "hNav1.4 (human), P35499", "result": "> 3000", "unit": "nM"},
      {"measurement": "IC50, automated patch clamp", "setting": "hNav1.5 (human), Q14524", "result": "> 3000", "unit": "nM"},
      {"measurement": "IC50", "setting": "Nav1.8", "result": "> 3000", "unit": "nM"},
      {"measurement": "IC50", "setting": "Cav1.1", "result": "> 3000", "unit": "nM"},
      {"measurement": "IC50", "setting": "Kv2.1", "result": "> 3000", "unit": "nM"},
      {"measurement": "IC50", "setting": "Cav2.2", "result": "> 3000", "unit": "nM"},
      {"measurement": "IC50", "setting": "hERG, Q12809", "result": "> 3000", "unit": "nM"},
      {"measurement": "IC50, automated patch clamp", "setting": "hNav1.2 (human), Q99250", "result": 82.2, "unit": "nM"},
      {"measurement": "IC50", "setting": "Cav1.3", "result": "> 3000", "unit": "nM"},
      {"measurement": "IC50, automated patch clamp", "setting": "hNav1.1 (human), P35498", "result": 19.4, "unit": "nM"},
      {"measurement": "IC50, automated patch clamp", "setting": "hNav1.6 (human), Q9UQD0 [4]", "result": 168, "unit": "nM"},
      {"measurement": "IC50", "setting": "Nav1.9", "result": "> 3000", "unit": "nM"},
      {"measurement": "IC50, automated patch clamp", "setting": "hNav1.7 (human), Q15858 [1]", "result": 45.7, "unit": "nM"},
      {"measurement": "IC50, automated patch clamp", "setting": "hNav1.3 (human), Q9NY46", "result": 107, "unit": "nM"}
    ]},
    {"binder": "GNDCLGFWSACNPKNDKCCANLVCSSKHKWCKGKL (modifications not checked)", "note": "[Hs1a-FL]", "values": [
      {"measurement": "IC50, patch clamp on HEK293 cells", "setting": "hNav1.4 (human), P35499", "result": "> 3000", "unit": "nM"},
      {"measurement": "IC50, patch clamp on HEK293 cells", "setting": "hNav1.5 (human), Q14524", "result": "> 3000", "unit": "nM"},
      {"measurement": "IC50, patch clamp on HEK293 cells", "setting": "hNav1.2 (human), Q99250", "result": 81.2, "unit": "nM"},
      {"measurement": "IC50, patch clamp on HEK293 cells", "setting": "hNav1.1 (human), P35498", "result": 19.4, "unit": "nM"},
      {"measurement": "IC50, patch clamp on HEK293 cells", "setting": "hNav1.6 (human), Q9UQD0 [4]", "result": 19.2, "unit": "nM"},
      {"measurement": "IC50, patch clamp on HEK293 cells", "setting": "hNav1.7 (human), Q15858 [1]", "result": 26.9, "unit": "nM"},
      {"measurement": "IC50, patch clamp on HEK293 cells", "setting": "hNav1.3 (human), Q9NY46", "result": 107, "unit": "nM"}
    ]}
  ]
}
